# Measured values taken from US20240400614A1, “CLEAVABLE PEPTIDES AND METHODS OF USE THEREOF” (Bright Peak Therapeutics AG, priority 2023, published 2024).
# Square brackets hold non-standard residues; d marks the D form. Ends that are not written are not given here. Tyr(3-NO2) = N[C@@H](Cc1ccc(O)c([N+](=O)[O-])c1)C(=O)O; Nle = CCCC[C@H](N)C(=O)O; 2Abz = Nc1ccccc1C(=O)O
# What was measured:
# Type in all cases: biochemical
# uPA = uPA (Homo sapiens, UniProt P00749); experiment: FRET peptide cleavage efficiency with uPA
# matriptase = biological target: T1, matriptase (Homo sapiens, UniProt Q9Y5Y6); experiment: FRET peptide cleavage efficiency with matriptase
# T1 construct: purchased R&D Systems 3946-SEB
# T1 sequence (Q9Y5Y6 615-855 limits assumed): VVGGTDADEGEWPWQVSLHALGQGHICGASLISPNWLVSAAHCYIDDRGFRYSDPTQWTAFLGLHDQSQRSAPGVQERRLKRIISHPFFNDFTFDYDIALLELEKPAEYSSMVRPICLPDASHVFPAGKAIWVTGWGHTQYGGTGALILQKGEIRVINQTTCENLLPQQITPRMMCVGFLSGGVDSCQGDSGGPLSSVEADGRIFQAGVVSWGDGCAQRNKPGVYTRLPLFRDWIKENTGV
# MMP-2 = biological target: T2, MMP-2 (Homo sapiens, UniProt P08253); experiment: FRET peptide cleavage efficiency with MMP-2
# T2 construct: purchased SIGMA PF023
# T2 sequence (P08253 110-660): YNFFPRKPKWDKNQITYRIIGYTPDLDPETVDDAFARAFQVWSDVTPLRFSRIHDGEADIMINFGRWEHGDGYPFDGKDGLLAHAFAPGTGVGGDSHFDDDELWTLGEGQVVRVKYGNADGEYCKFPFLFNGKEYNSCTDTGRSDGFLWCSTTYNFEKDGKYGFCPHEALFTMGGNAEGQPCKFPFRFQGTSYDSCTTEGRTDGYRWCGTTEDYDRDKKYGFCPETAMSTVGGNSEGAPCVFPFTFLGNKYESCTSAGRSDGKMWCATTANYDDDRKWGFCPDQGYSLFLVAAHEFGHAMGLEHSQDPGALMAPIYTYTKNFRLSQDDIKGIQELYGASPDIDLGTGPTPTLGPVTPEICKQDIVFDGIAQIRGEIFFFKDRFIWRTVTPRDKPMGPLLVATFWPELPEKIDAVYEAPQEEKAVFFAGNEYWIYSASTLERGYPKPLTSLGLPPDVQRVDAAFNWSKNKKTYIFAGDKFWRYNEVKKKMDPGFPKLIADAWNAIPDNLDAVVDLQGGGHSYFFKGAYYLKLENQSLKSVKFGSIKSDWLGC
# MMP-7 = biological target: T3, MMP-7 (Homo sapiens, UniProt P09237); experiment: FRET peptide cleavage efficiency with MMP-7 (standard pH 7.5; also pH 6.5)
# T3 construct: purchased SIGMA CC1059
# T3 sequence (P09237 95-267): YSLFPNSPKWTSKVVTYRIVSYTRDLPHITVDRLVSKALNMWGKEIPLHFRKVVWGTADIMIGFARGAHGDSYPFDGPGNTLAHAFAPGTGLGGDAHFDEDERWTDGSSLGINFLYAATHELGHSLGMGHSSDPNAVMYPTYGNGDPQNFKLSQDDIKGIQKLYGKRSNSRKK
# MMP-9 = biological target: T4, MMP-9 (Homo sapiens, UniProt P14780); experiment: FRET peptide cleavage efficiency with MMP-9 (standard pH 7.5; also pH 6.5)
# T4 construct: purchased SIGMA PF024
# T4 sequence (P14780 94-707): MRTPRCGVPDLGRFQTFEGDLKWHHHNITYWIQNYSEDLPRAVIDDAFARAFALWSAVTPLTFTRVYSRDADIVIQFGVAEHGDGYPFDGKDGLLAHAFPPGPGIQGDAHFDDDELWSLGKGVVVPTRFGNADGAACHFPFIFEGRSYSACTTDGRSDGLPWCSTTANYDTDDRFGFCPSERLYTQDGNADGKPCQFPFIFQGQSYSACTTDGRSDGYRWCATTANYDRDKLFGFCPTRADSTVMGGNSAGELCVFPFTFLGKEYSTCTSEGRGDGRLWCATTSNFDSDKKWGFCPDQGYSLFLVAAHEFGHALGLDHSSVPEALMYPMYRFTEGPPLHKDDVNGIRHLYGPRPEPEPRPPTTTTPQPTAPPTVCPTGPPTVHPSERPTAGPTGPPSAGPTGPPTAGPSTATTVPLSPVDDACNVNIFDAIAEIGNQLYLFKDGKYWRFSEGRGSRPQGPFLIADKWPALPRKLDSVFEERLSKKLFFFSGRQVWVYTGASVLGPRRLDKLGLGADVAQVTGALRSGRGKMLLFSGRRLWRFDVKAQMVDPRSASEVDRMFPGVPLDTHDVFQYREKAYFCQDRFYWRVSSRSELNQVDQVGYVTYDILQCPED
# [1] = t = 15 min, standard conditions (Table 8)
# [2] = t = 60 min, standard conditions (Table 8)
# [3] = t = 120 min, standard conditions (Table 8)
substance,measurement,setting,value
RQRRSPLGLAG ([2Abz]RQRRSPLGLAG[Tyr(3-NO2)]-NH2) [LNK010],% cleavage uPA t = 60 min,"uPA; pH 6.5, t = 60 min (Table 7)",0%
same,% cleavage uPA t = 120 min,"uPA; pH 6.5, t = 120 min (Table 7)",0%
same,% cleavage uPA t = 60 min,"uPA; pH 7.5, t = 60 min (Table 7)",0%
same,% cleavage uPA t = 120 min,"uPA; pH 7.5, t = 120 min (Table 7)",0%
same,% cleavage uPA t = 15 min,"uPA; t = 15 min, 200 uM linker, 1 ug/ml protease, 37° C., buffer A pH 8.5",0%
same,% cleavage uPA t = 60 min,"uPA; t = 60 min, 200 uM linker, 1 ug/ml protease, 37° C., buffer A pH 8.5",1%
same,% cleavage uPA t = 120 min,"uPA; t = 120 min, 200 uM linker, 1 ug/ml protease, 37° C., buffer A pH 8.5",2%
same,% cleavage Matriptase t = 15 min,"matriptase; pH 6.5, t = 15 min (Table 7)",90%
same,% cleavage Matriptase t = 60 min,"matriptase; pH 6.5, t = 60 min (Table 7)",100%
same,% cleavage Matriptase t = 15 min,"matriptase; pH 7.5, t = 15 min (Table 7)",100%
same,% cleavage Matriptase t = 60 min,"matriptase; pH 7.5, t = 60 min (Table 7)",100%
same,% cleavage Matriptase t = 15 min,"matriptase; t = 15 min, 200 uM linker, 1 ug/ml protease, 37° C., buffer B pH 9.0",98%
same,% cleavage Matriptase t = 60 min,"matriptase; t = 60 min, 200 uM linker, 1 ug/ml protease, 37° C., buffer B pH 9.0",94%
same,% cleavage Matriptase t = 120 min,"matriptase; 200 uM linker, 1 ug/ml protease, 37° C., buffer B pH 9.0",91%
same,% cleavage MMP-2 t = 15 min,"MMP-2; pH 6.5, t = 15 min (Table 7)",63%
same,% cleavage MMP-2 t = 60 min,"MMP-2; pH 6.5, t = 60 min (Table 7)",100%
same,% cleavage MMP-2 t = 15 min,"MMP-2; pH 7.5, t = 15 min (Table 7)",66%
same,% cleavage MMP-2 t = 60 min,"MMP-2; pH 7.5, t = 60 min (Table 7)",100%
same,% cleavage MMP-2 t = 15 min,MMP-2; t = 15 min (Table 9),67%
same,% cleavage MMP-2 t = 15 min,"MMP-2; t = 15 min, 200 uM linker, 1 ug/ml protease, 37° C., buffer C pH 7.5",64%
same,% cleavage MMP-2 t = 60 min,MMP-2; t = 60 min (Table 9),100%
same,% cleavage MMP-2 t = 60 min,"MMP-2; t = 60 min, 200 uM linker, 1 ug/ml protease, 37° C., buffer C pH 7.5",99%
same,% cleavage MMP-2 t = 120 min,MMP-2; t = 120 min (Table 9),100%
same,% cleavage MMP-2 t = 120 min,"MMP-2; t = 120 min, 200 uM linker, 1 ug/ml protease, 37° C., buffer C pH 7.5",99%
same,% cleavage MMP-7 t = 15 min,MMP-7; t = 15 min (Table 9),15%
same,% cleavage MMP-7 t = 60 min,MMP-7; t = 60 min (Table 9),49%
same,% cleavage MMP-7 t = 120 min,MMP-7; t = 120 min (Table 9),78%
same,% cleavage MMP-9 t = 15 min,MMP-9; t = 15 min (Table 9),76%
same,% cleavage MMP-9 t = 60 min,MMP-9; t = 60 min (Table 9),99%
same,% cleavage MMP-9 t = 120 min,MMP-9; t = 120 min (Table 9),100%
RQRKVANLVG ([2Abz]RQRKVANLVG[Tyr(3-NO2)]-NH2) [LNK032],% vcleavage uPA t = 15 min,uPA; [1],0%
same,% cleavage uPA t = 60 min,uPA; [2],0%
same,% cleavage uPA t = 120 min,uPA; [3],0%
same,% cleavage Matriptase t = 15 min,matriptase; [1],81%
same,% cleavage Matriptase t = 60 min,matriptase; [2],100%
same,% cleavage Matriptase t = 120 min,matriptase; standard conditions (Table 8),100%
same,% cleavage MMP-2 t = 15 min,MMP-2; t = 15 min (Table 9),81%
same,% cleavage MMP-2 t = 60 min,MMP-2; t = 60 min (Table 9),100%
same,% cleavage MMP-2 t = 60 min,MMP-2; [2],100%
same,% cleavage MMP-2 t = 120 min,MMP-2; t = 120 min (Table 9),100%
same,% cleavage MMP-2 t = 120 min,MMP-2; [3],100%
same,% cleavage MMP-7 t = 15 min,MMP-7; t = 15 min (Table 9),20%
same,% cleavage MMP-7 t = 15 min,MMP-7; [1],20%
same,% cleavage MMP-7 t = 60 min,MMP-7; t = 60 min (Table 9),72%
same,% cleavage MMP-7 t = 60 min,MMP-7; [2],72%
same,% cleavage MMP-7 t = 120 min,MMP-7; t = 120 min (Table 9),95%
same,% cleavage MMP-7 t = 120 min,MMP-7; [3],95%
same,% cleavage MMP-9 t = 15 min,MMP-9; t = 15 min (Table 9),53%
same,% cleavage MMP-9 t = 15 min,MMP-9; [1],53%
same,% cleavage MMP-9 t = 60 min,MMP-9; t = 60 min (Table 9),100%
same,% cleavage MMP-9 t = 60 min,MMP-9; [2],100%
same,% cleavage MMP-9 t = 120 min,MMP-9; t = 120 min (Table 9),100%
same,% cleavage MMP-9 t = 120 min,MMP-9; [3],100%
"SGRVQPLVD (not fully specified (N-terminus, C-terminus)) [LNK047]",% vcleavage uPA t = 15 min,uPA; [1],1%
same,% cleavage uPA t = 60 min,uPA; [2],1%
same,% cleavage uPA t = 120 min,uPA; [3],2%
same,% cleavage Matriptase t = 15 min,matriptase; [1],4%
same,% cleavage Matriptase t = 60 min,matriptase; [2],17%
same,% cleavage Matriptase t = 120 min,matriptase; standard conditions (Table 8),33%
same,% cleavage MMP-2 t = 15 min,MMP-2; t = 15 min (Table 9),2%
same,% cleavage MMP-2 t = 60 min,MMP-2; t = 60 min (Table 9),5%
same,% cleavage MMP-2 t = 60 min,MMP-2; [2],5%
same,% cleavage MMP-2 t = 120 min,MMP-2; t = 120 min (Table 9),9%
same,% cleavage MMP-2 t = 120 min,MMP-2; [3],9%
same,% cleavage MMP-7 t = 15 min,MMP-7; t = 15 min (Table 9),20%
same,% cleavage MMP-7 t = 15 min,MMP-7; [1],20%
same,% cleavage MMP-7 t = 60 min,MMP-7; t = 60 min (Table 9),65%
same,% cleavage MMP-7 t = 60 min,MMP-7; [2],65%
same,% cleavage MMP-7 t = 120 min,MMP-7; t = 120 min (Table 9),88%
same,% cleavage MMP-7 t = 120 min,MMP-7; [3],88%
same,% cleavage MMP-9 t = 15 min,MMP-9; t = 15 min (Table 9),1%
same,% cleavage MMP-9 t = 15 min,MMP-9; [1],1%
same,% cleavage MMP-9 t = 60 min,MMP-9; t = 60 min (Table 9),2%
same,% cleavage MMP-9 t = 60 min,MMP-9; [2],2%
same,% cleavage MMP-9 t = 120 min,MMP-9; t = 120 min (Table 9),4%
same,% cleavage MMP-9 t = 120 min,MMP-9; [3],4%
RGRKSPY-Nle-LQG ([2Abz]RGRKSPY[Nle]LQG[Tyr(3-NO2)]-NH2) [LNK038],% vcleavage uPA t = 15 min,uPA; [1],0%
same,% cleavage uPA t = 60 min,uPA; [2],0%
same,% cleavage uPA t = 120 min,uPA; [3],0%
same,% cleavage Matriptase t = 15 min,matriptase; [1],100%
same,% cleavage Matriptase t = 60 min,matriptase; [2],100%
same,% cleavage Matriptase t = 120 min,matriptase; standard conditions (Table 8),100%
same,% cleavage MMP-2 t = 15 min,MMP-2; t = 15 min (Table 9),19%
same,% cleavage MMP-2 t = 60 min,MMP-2; t = 60 min (Table 9),55%
same,% cleavage MMP-2 t = 60 min,MMP-2; [2],55%
same,% cleavage MMP-2 t = 120 min,MMP-2; t = 120 min (Table 9),76%
same,% cleavage MMP-2 t = 120 min,MMP-2; [3],76%
same,% cleavage MMP-7 t = 15 min,MMP-7; t = 15 min (Table 9),22%
same,% cleavage MMP-7 t = 15 min,MMP-7; [1],22%
same,% cleavage MMP-7 t = 60 min,MMP-7; t = 60 min (Table 9),69%
same,% cleavage MMP-7 t = 60 min,MMP-7; [2],69%
same,% cleavage MMP-7 t = 120 min,MMP-7; t = 120 min (Table 9),92%
same,% cleavage MMP-7 t = 120 min,MMP-7; [3],92%
same,% cleavage MMP-9 t = 15 min,MMP-9; t = 15 min (Table 9),23%
same,% cleavage MMP-9 t = 15 min,MMP-9; [1],23%
same,% cleavage MMP-9 t = 60 min,MMP-9; t = 60 min (Table 9),71%
same,% cleavage MMP-9 t = 60 min,MMP-9; [2],71%
same,% cleavage MMP-9 t = 120 min,MMP-9; t = 120 min (Table 9),97%
same,% cleavage MMP-9 t = 120 min,MMP-9; [3],97%
